Assay results from publication PMC4655287, “Selection of Single-Stranded DNA Molecular Recognition Elements against Exotoxin A Using a Novel Decoy-SELEX Method and Sensitive Detection of Exotoxin A in Human Serum”.

Target: Exotoxin A (Pseudomonas aeruginosa, UniProt P11439 26-638)
Assay: SPR; […]; 0-2 uM analyte, 1:1 kinetic model; SPR (Biacore X100): 100 mM NaCl, 20 mM Tris-HCl, 2 mM MgCl2 (pH not stated), room temperature, 5 uL/min
Conditions: protein: commercial; tags: none stated

Sequence of Exotoxin A (P11439 26-638): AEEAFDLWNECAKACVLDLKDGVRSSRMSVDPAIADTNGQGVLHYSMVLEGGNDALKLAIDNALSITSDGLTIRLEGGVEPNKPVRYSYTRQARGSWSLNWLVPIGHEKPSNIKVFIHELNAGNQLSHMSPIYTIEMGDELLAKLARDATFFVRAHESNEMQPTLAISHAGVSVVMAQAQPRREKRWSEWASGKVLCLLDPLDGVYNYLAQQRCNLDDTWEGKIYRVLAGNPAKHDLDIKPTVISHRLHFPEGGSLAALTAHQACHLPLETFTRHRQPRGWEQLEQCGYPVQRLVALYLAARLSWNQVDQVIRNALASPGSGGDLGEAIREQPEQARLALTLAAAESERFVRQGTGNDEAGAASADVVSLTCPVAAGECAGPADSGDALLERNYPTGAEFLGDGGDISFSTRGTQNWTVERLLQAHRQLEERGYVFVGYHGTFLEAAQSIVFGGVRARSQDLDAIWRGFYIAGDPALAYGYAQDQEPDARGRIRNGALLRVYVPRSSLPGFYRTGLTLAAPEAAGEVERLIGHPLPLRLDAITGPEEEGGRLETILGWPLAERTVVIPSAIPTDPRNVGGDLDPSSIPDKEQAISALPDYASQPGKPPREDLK

B1: R14.33 (ssDNA)
DNA: TGTACCGTCTGAGCGATTCGTACCATAGGGTGCTTTTCAAGGCCACACGTTAGTGTAAGCCAGTCAGTGTTAAGGAGTGC
modifications: 5' amino-C6
Kd: 4.35 µM
